Source: paper PMC2917185 (Nature structural & molecular biology, 2010)
Substitutions are numbered along the chain they refer to. Names and notes keep the numbering of the source. Values joined by “and” are separate entries in the source; they are usually repeats but may differ in a detail not shown here. Equal entries are not always repeated. Where two headings read alike, the source gives them in different places.

B1: cpSRP (chloroplast signal recognition particle, cpSRP43 with cpSRP54) (complex)
chain 1: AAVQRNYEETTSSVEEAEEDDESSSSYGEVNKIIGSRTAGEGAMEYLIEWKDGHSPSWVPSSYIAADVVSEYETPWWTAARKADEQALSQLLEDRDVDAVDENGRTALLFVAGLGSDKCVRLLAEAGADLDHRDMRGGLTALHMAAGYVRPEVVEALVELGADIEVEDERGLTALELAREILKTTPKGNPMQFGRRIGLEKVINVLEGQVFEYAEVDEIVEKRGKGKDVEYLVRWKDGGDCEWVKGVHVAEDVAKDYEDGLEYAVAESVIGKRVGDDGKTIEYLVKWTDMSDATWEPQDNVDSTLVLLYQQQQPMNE
chain 2: EMFGQLTGGLEAAWSKLKGEEVLTKDNIAEPMRDIRRALLEADVSLPVVRRFVQSVSDQAVGMGVIRGVKPDQQLVKIVHDELVKLMGGEVSELQFAKSGPTVILLAGLQGVGKTTVCAKLACYLKKQGKSCMLIAGDVYRPAAIDQLVILGEQVGVPVYTAGTDVKPADIAKQGLKEAKKNNVDVVIMDTAGRLQIDKGMMDELKDVKKFLNPTEVLLVVDAMTGQEAAALVTTFNVEIGITGAILTKLDGDSRGGAALSVKEVSGKPIKLVGRGERMEDLEPFYPDRMAGRILGMGDVLSFVEKATEVMRQEDAEDLQKKIMSAKFDFNDFLKQTRAVAKMGSMTRVLGMIPGMGKVSPAQIREAEKNLLVMEAMIEVMTPEERERPELLAESPERRKRIAKDSGKTEQQVSALVAQIFQMRVKMKNLMGVMEGGSIPALSGLEDALKAEQKAPPGTARRKRKADSRKKFVESASSKPGPRGFGSGN
B2: cpSRP-Y204A (cpSRP assembled from cpSRP43-Y204A and cpSRP54) (complex)
chain 1: B1 chain 1 with Y148A
chain 2: B1 chain 2
B3: cpSRP-R161A (cpSRP assembled from cpSRP43-R161A and cpSRP54) (complex)
chain 1: B1 chain 1 with R105A
chain 2: B1 chain 2
B4: cpSRP43 ΔCD2ΔCD3 (CD1–Ank4 fragment) (domain or fragment)
chain: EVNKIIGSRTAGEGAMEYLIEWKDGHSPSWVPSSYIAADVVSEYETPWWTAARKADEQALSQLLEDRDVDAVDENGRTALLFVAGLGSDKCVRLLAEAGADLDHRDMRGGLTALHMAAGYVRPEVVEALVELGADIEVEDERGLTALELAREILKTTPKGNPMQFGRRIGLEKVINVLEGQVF

What was measured:
[1] = target: LHCP (light-harvesting chlorophyll a/b binding protein), fluorescein-labeled (UniProt P07371 38-269); experiment: fluorescence polarisation
[2] = target: LHCP (light-harvesting chlorophyll a/b binding protein), fluorescein-labeled (UniProt P07371 38-269); experiment: fluorescence polarisation; remark: listed apart in the source

Binder	Kd [1]	Kd [2]
B1	76 nM and 128 nM	–
B2	> 5000 nM	–
B3	1200 nM	–
B4	–	> 10000 nM
